Reference: patent US10941182 (Amgen, dated 2021)
Starred links: 1 amine or outer side, 2 acyl side, 3 side chain; linkers in the order of their positions; H or OH if unused. Non-standard residues stand in square brackets, D forms with d. No end group written: not given here. rCha = cyclohexylalanine with ψ(CH2NH) reduced amide bond, C1CCC(C[C@@H](C[*:2])N[*:1])CC1; rhArg = homoarginine with ψ(CH2NH) reduced amide bond, N=C(N)NCCCC[C@@H](C[*:2])N[*:1]; rHis = histidine with ψ(CH2NH) reduced amide bond, c1nc(C[C@@H](C[*:2])N[*:1])c[nH]1; rLys = lysine with ψ(CH2NH) reduced amide bond, C(CC[C@@H](C[*:2])N[*:1])CN[*:3]; DrSer = D-serine with ψ(CH2NH) reduced amide bond, C(O[*:3])[C@H](C[*:2])N[*:1]; rSer = serine with ψ(CH2NH) reduced amide bond, C(O[*:3])[C@@H](C[*:2])N[*:1]; dBip = N[C@H](Cc1ccc(-c2ccccc2)cc1)C(=O)O; Oic = O=C(O)[C@@H]1C[C@@H]2CCCC[C@@H]2N1; Phe(4-Cl) = N[C@@H](Cc1ccc(Cl)cc1)C(=O)O; Phe(4-I) = N[C@@H](Cc1ccc(I)cc1)C(=O)O; 2Nal = N[C@@H](Cc1ccc2ccccc2c1)C(=O)O; hArg = N=C(N)NCCCC[C@H](N)C(=O)O; Cha = N[C@@H](CC1CCCCC1)C(=O)O; Gly(N-CH2CH2OH) = O=C(O)CNCCO; NMeL = CN[C@@H](CC(C)C)C(=O)O; αMeL = CC(C)C[C@](C)(N)C(=O)O; αMeOrn = C[C@](N)(CCCN)C(=O)O; αMeP = C[C@@]1(C(=O)O)CCCN1; αMeS = C[C@](N)(CO)C(=O)O; Nle = CCCC[C@H](N)C(=O)O; Orn = NCCC[C@H](N)C(=O)O; Nlys = NCCCCNCC(=O)O; BLeu = β-leucine

T1: human APJ receptor (human, UniProt P35414 1-380)
T1 sequence (looked up): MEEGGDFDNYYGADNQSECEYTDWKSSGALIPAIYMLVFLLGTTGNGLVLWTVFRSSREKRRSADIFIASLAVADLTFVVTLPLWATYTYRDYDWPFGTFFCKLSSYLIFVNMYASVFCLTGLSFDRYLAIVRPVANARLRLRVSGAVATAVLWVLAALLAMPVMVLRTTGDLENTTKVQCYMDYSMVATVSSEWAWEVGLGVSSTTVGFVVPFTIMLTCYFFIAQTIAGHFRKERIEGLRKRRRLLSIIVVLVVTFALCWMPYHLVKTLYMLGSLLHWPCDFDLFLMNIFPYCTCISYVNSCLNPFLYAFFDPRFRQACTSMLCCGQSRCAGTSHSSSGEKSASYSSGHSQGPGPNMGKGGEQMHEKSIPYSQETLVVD

T2: rat APJ receptor (rat, UniProt Q9JHG3 1-377)
T2 sequence (looked up): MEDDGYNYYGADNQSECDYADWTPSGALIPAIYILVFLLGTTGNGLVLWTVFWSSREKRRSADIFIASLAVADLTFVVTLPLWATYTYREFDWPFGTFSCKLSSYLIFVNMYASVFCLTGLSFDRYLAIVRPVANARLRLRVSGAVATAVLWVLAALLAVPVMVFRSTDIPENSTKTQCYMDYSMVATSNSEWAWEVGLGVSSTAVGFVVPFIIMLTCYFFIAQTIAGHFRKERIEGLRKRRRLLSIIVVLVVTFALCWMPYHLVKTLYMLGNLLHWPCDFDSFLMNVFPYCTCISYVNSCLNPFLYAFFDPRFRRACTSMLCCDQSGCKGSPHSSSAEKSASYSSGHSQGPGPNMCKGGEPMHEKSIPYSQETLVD


Legend:
human APJ receptor = target: T1, human APJ receptor; assay: cell-based or functional assay
rat APJ receptor = target: T2, rat APJ receptor; assay: cell-based or functional assay

Row | EC50 Human APJ Receptor (human APJ receptor) | EC50 Rat APJ Receptor (rat APJ receptor) | Binder
1 | 0.0519 nM | 0.193 nM | Ac-[Orn]F[hArg][hArg]Q[hArg]P[hArg][αMeL]SHKG[Oic][Nle]P[Phe(4-Cl)]-OH (SMILES CCCC[C@H](NC(=O)[C@@H]1C[C@@H]2CCCC[C@@H]2N1C(=O)CNC(=O)[C@H](CCCCN)NC(=O)[C@H](Cc1c[nH]cn1)NC(=O)[C@H](CO)NC(=O)[C@](C)(CC(C)C)NC(=O)[C@H](CCCCNC(=N)N)NC(=O)[C@@H]1CCCN1C(=O)[C@H](CCCCNC(=N)N)NC(=O)[C@H](CCC(N)=O)NC(=O)[C@H](CCCCNC(=N)N)NC(=O)[C@H](CCCCNC(=N)N)NC(=O)[C@H](Cc1ccccc1)NC(=O)[C@H](CCCN)NC(C)=O)C(=O)N1CCC[C@H]1C(=O)N[C@@H](Cc1ccc(Cl)cc1)C(=O)O) [apelin polypeptide SEQ ID NO: 34]
2 | 0.0869 nM | 1.3 nM | Ac-[Orn]F[hArg][hArg]Q[rhArg]P[hArg][Cha]SHKG[Oic][Nle]P[Phe(4-Cl)]-OH (also: reduced amide bond (CH2NH) at residue 6) [apelin polypeptide SEQ ID NO: 38]
3 | 0.116 nM | 0.703 nM | Ac-[Orn]F[hArg][hArg]Q[hArg]P[hArg][Cha][Gly(N-CH2CH2OH)]HKG[Oic][Nle]P[Phe(4-Cl)]-OH (SMILES CCCC[C@H](NC(=O)[C@@H]1C[C@@H]2CCCC[C@@H]2N1C(=O)CNC(=O)[C@H](CCCCN)NC(=O)[C@H](Cc1c[nH]cn1)NC(=O)CN(CCO)C(=O)[C@H](CC1CCCCC1)NC(=O)[C@H](CCCCNC(=N)N)NC(=O)[C@@H]1CCCN1C(=O)[C@H](CCCCNC(=N)N)NC(=O)[C@H](CCC(N)=O)NC(=O)[C@H](CCCCNC(=N)N)NC(=O)[C@H](CCCCNC(=N)N)NC(=O)[C@H](Cc1ccccc1)NC(=O)[C@H](CCCN)NC(C)=O)C(=O)N1CCC[C@H]1C(=O)N[C@@H](Cc1ccc(Cl)cc1)C(=O)O) [apelin polypeptide SEQ ID NO: 31]
4 | 0.0449 nM | 0.247 nM | Ac-[Orn]F[hArg][hArg]Q[hArg]P[hArg][rCha]SHKG[Oic][Nle]P[Phe(4-Cl)]-OH (also: reduced amide bond (CH2NH) at residue 9) [apelin polypeptide SEQ ID NO: 42]
5 | 0.0861 nM | 0.185 nM | Ac-[Orn]F[hArg][hArg]Q[hArg]P[hArg][Cha][αMeS]HKG[Oic][Nle]P[Phe(4-Cl)]-OH [apelin polypeptide SEQ ID NO: 35]
6 | 0.159 nM | 0.291 nM | Ac-[Orn]F[hArg][hArg]QRP[hArg][Cha]SHKGP[Nle][2Nal]-OH (SMILES CCCC[C@H](NC(=O)[C@@H]1CCCN1C(=O)CNC(=O)[C@H](CCCCN)NC(=O)[C@H](Cc1c[nH]cn1)NC(=O)[C@H](CO)NC(=O)[C@H](CC1CCCCC1)NC(=O)[C@H](CCCCNC(=N)N)NC(=O)[C@@H]1CCCN1C(=O)[C@H](CCCNC(=N)N)NC(=O)[C@H](CCC(N)=O)NC(=O)[C@H](CCCCNC(=N)N)NC(=O)[C@H](CCCCNC(=N)N)NC(=O)[C@H](Cc1ccccc1)NC(=O)[C@H](CCCN)NC(C)=O)C(=O)N[C@@H](Cc1ccc2ccccc2c1)C(=O)O) [apelin polypeptide SEQ ID NO: 49]
7 | 0.253 nM | 0.323 nM | Ac-[Orn]F[hArg][hArg]Q[hArg]P[rhArg][Cha]SHKG[Oic][Nle]P[Phe(4-Cl)]-OH (also: reduced amide bond (CH2NH) at residue 8) [apelin polypeptide SEQ ID NO: 39]
8 | 0.416 nM | 0.63 nM | Ac-[Orn]F[hArg][hArg]QRP[hArg][NMeL]SHKG[Oic][Phe(4-I)]P[dBip]-OH (SMILES CC(=O)N[C@@H](CCCN)C(=O)N[C@@H](Cc1ccccc1)C(=O)N[C@@H](CCCCNC(=N)N)C(=O)N[C@@H](CCCCNC(=N)N)C(=O)N[C@@H](CCC(N)=O)C(=O)N[C@@H](CCCNC(=N)N)C(=O)N1CCC[C@H]1C(=O)N[C@@H](CCCCNC(=N)N)C(=O)N(C)[C@@H](CC(C)C)C(=O)N[C@@H](CO)C(=O)N[C@@H](Cc1c[nH]cn1)C(=O)N[C@@H](CCCCN)C(=O)NCC(=O)N1[C@H](C(=O)N[C@@H](Cc2ccc(I)cc2)C(=O)N2CCC[C@H]2C(=O)N[C@H](Cc2ccc(-c3ccccc3)cc2)C(=O)O)C[C@@H]2CCCC[C@@H]21) [apelin polypeptide SEQ ID NO: 47]
9 | 0.997 nM | 3.79 nM | Ac-[Orn]F[hArg][hArg]Q[hArg]P[hArg][Cha][DrSer]HKG[Oic][Nle]P[Phe(4-Cl)]-OH (also: reduced amide bond at D-Ser10 (DrSer)) [apelin polypeptide SEQ ID NO: 44]
10 | 0.393 nM | 1.83 nM | Ac-[Orn]F[hArg][hArg]Q[hArg]P[hArg][Cha][rSer]HKG[Oic][Nle]P[Phe(4-Cl)]-OH (also: reduced amide bond at Ser10 (rSer)) [apelin polypeptide SEQ ID NO: 43]
11 | 0.0985 nM | 0.318 nM | Ac-[Orn]F[hArg][hArg]Q[hArg][αMeP][hArg][Cha]SHKG[Oic][Nle]P[Phe(4-Cl)]-OH [apelin polypeptide SEQ ID NO: 33]
12 | 0.234 nM | 1.45 nM | Ac-[Orn]F[hArg][hArg]Q[hArg]P[hArg][Cha]S[rHis]KG[Oic][Nle]P[Phe(4-Cl)]-OH (also: reduced amide bond (CH2NH) at residue 11) [apelin polypeptide SEQ ID NO: 40]
13 | 0.168 nM | 0.271 nM | [Orn]F[hArg][hArg]Q[hArg]P[hArg][Cha]SHKG[Oic][Nle]P[Phe(4-Cl)] [apelin polypeptide SEQ ID NO: 714]
14 | 0.0672 nM | 0.136 nM | Ac-[Orn]F[hArg][hArg]Q[hArg]P[hArg][Cha]SHKG[Oic][Nle][αMeP][Phe(4-Cl)]-OH [apelin polypeptide SEQ ID NO: 37]
15 | 0.287 nM | 0.486 nM | Ac-[Orn]F[hArg][hArg]QRP[hArg][Cha]SHKGP[Nle][Phe(4-Cl)]-OH (SMILES CCCC[C@H](NC(=O)[C@@H]1CCCN1C(=O)CNC(=O)[C@H](CCCCN)NC(=O)[C@H](Cc1c[nH]cn1)NC(=O)[C@H](CO)NC(=O)[C@H](CC1CCCCC1)NC(=O)[C@H](CCCCNC(=N)N)NC(=O)[C@@H]1CCCN1C(=O)[C@H](CCCNC(=N)N)NC(=O)[C@H](CCC(N)=O)NC(=O)[C@H](CCCCNC(=N)N)NC(=O)[C@H](CCCCNC(=N)N)NC(=O)[C@H](Cc1ccccc1)NC(=O)[C@H](CCCN)NC(C)=O)C(=O)N[C@@H](Cc1ccc(Cl)cc1)C(=O)O) [apelin polypeptide SEQ ID NO: 48]
16 | 0.25 nM | 1.51 nM | Ac-[Orn]F[hArg][hArg]Q[hArg]P[hArg][Cha]SH[Nlys]G[Oic][Nle]P[Phe(4-Cl)]-OH [apelin polypeptide SEQ ID NO: 32]
17 | 0.166 nM | 0.456 nM | Ac-[Orn]F[hArg][hArg]Q[hArg]P[hArg][BLeu]SHKG[Oic][Nle]P[Phe(4-Cl)]-OH [apelin polypeptide SEQ ID NO: 30]
18 | 0.355 nM | 1.94 nM | Ac-[Orn]F[hArg][hArg]Q[hArg]P[hArg][Cha]SH[αMeOrn]G[Oic][Nle]P[Phe(4-Cl)]-OH [apelin polypeptide SEQ ID NO: 36]
19 | 0.389 nM | 1.04 nM | Ac-[Orn]F[hArg][hArg]QRP[hArg][Cha]SHKGP[Phe(4-I)]P[dBip]-OH (SMILES CC(=O)N[C@@H](CCCN)C(=O)N[C@@H](Cc1ccccc1)C(=O)N[C@@H](CCCCNC(=N)N)C(=O)N[C@@H](CCCCNC(=N)N)C(=O)N[C@@H](CCC(N)=O)C(=O)N[C@@H](CCCNC(=N)N)C(=O)N1CCC[C@H]1C(=O)N[C@@H](CCCCNC(=N)N)C(=O)N[C@@H](CC1CCCCC1)C(=O)N[C@@H](CO)C(=O)N[C@@H](Cc1c[nH]cn1)C(=O)N[C@@H](CCCCN)C(=O)NCC(=O)N1CCC[C@H]1C(=O)N[C@@H](Cc1ccc(I)cc1)C(=O)N1CCC[C@H]1C(=O)N[C@H](Cc1ccc(-c2ccccc2)cc1)C(=O)O) [apelin polypeptide SEQ ID NO: 46]
20 | 0.151 nM | 0.817 nM | Ac-[Orn]F[hArg][hArg]Q[hArg]P[hArg][Cha]SH[rLys]G[Oic][Nle]P[Phe(4-Cl)]-OH (also: reduced amide bond (CH2NH) at residue 12) [apelin polypeptide SEQ ID NO: 41]
